{"source": "paper PMC6981215", "molecular_target": "Momordica charantia 7S globulin (Momordica charantia)", "test": "SEC; HiLoad 16/60 Superdex 200 pg, 50 mM Tris pH 7.4 with 150 mM NaCl, 0.5 ml/min; peak at ~69.2 ml, mass estimated from a calibration with high molecular weight standards"}
{"substance": "Momordica charantia 7S globulin (natural protein)", "values": [{"measurement": "stoichiometry N", "value": 3}]}
